Where a chain is given by its changes, count along the chain named.
B1: Tab1 (Z270) (antibody, V domains shown)
VH: EVQLVESGGGLVKPGGSLRLSCAASGFTFSSHSMNWVRQAPGKGLEWVSAISSSSSYIYYADSVKGRFTISRDNAKNSLYLQMNSLRAEDTAVYYCAREEWGLPFDYWGQGTLVTVSS
VL: AIQLTQSPSSLSASVGDRVTITCRASQGISSALAWYQQKPGKAPKLLIYDASSLKSGVPSRFSGSGSGTDFTLTISSLQPEDFATYYCQQFNSYPLTFGQGTRLEIK
B2: 2F10-2 (scFv clone) (scFv, V domains shown)
VH: QVQLQQSVAELVRPGASVKLSCTASGFNIKNAYVHWVKQRPEQGLEWIGQIDPANGNTKYAPKFQAKATITADTSSNTVYLQLSSLTSEDTAVYYCARSYLGGQYYFDYSGQGTTLTVSS
VL: DILMTQSPSSMYASLGERVTITCKASQDINSYLSWFQQKPGKSPKTLIYRANRLVDGVPSRFSGSGSGQDYSLTISSLEYEDMGIYYCLQYDEFPLTFGAGTKLEIK
notes: scFv
B3: Mab031 (antibody, V domains shown)
VH: EVQLQQSVAELVRPGASVRLSCTGSGFNIQNTYIHWVKQRPEQGLEWIGRIDPANGDTKYAPKFQGKATITADTSSNTAYLQLSSLTSEDTAIYYCTRYGNYLYYYSLDYWGQGTSVTVSS
VL: DIVMTQAAPSVPVTPGESVSISCRSSKSLLHSNGNTYLYWFLQRPGQSPQLLIYRMSNLASGVPDRFSGSGSGTAFTLRISRVEAEDMGVYYCMQHLEYPYTFGGGTKLEIK
B4: Mpb416 (antibody, V domains shown)
VH: QVQLQQSVAELVRPGASVKLSCTASGFNIQNTYIHWVKQRPEQGLEWIGKIDPANGDTKYAPTFQGKATITADTSSNTAYLQLSSLTPEDTAIYYCARYRDYLFYYALGYWGQGTSVTVSS
VL: B3 VL with A7S, M88V
notes: also called 12G8 (as full antibody)
B5: Mab033 (antibody, V domains shown)
VH: EVQLQQSVAEFVRPGASVRLSCTASGFNIENTYIHWLKQRPEQGLEWIGRIDPANGDTQYDPKFQGKATLTAATSSNTAYLQLSGLTSEDTAIYYCTRYGDYLFYYSLKYWGQGTSVTVSS
VL: B3 VL with P12S, M88V, Y99S
B6: M15 (antibody, V domains shown)
VH: B4 VH with G56A
VL: B3 VL with A7S, G34A, M88V
notes: parent of the humanized M15-1 to M15-15; also called M15 antibody; Mpb416-M15
B7: Mab032 (antibody, V domains shown)
VH: B3 VH with Q30E, I34M, V37L, N55D, K59Q, A72T, T97A, Y104F, L108M
VL: B3 VL with G73A, M88V, V90I
B8: M15-5 (antibody, V domains shown)
VH: QVQLVQSGAEVKKPGASVKVSCKASGFNIQNTYIHWVKQAPGQGLEWIGKIDPANADTKYAPTFQGRATITADTSTNTAYLELSSLRSEDTAVYYCARYRDYLFYYALGYWGQGTTVTVSS
VL: DIVMTQSPLSLPVTPGEPASISCRSSKSLLHSNANTYLYWYLQKPGQSPQLLIYRMSNLASGVPDRFSGSGSGTDFTLKISRVEAEDVGVYYCMQHLEYPYTFGQGTKLEIK
notes: Humanized; also called humanized NKG2A antibody

Key:
[1] = molecular target: T1, human NKG2A/CD94 on the cell surface (CHOk1-hNKG2A/CD94 stable cell line) (human, UniProt P26715 1-233; Q13241 1-179); experiment: FACS blocking assay: HLA-E-PE binding to CHOk1-hNKG2A/CD94 cells in the presence of the antibody
T1 construct: whole, on cells; 93 and 94 are nucleic acids; also called human NKG2A on the cell surface; NKG2A/CD94 cells

[2] = molecular target: T2, hFc-tagged NKG2A/CD94 protein (NKG2A/CD94-hFc), immunogen A (human, UniProt P26715 94-233; Q13241 32-179, biotin-labeled in the Octet assays (site not stated)); experiment: BLI (Octet), biotinylated HNKG2A/CD94-ECD-Fc on streptavidin sensor, method of Example 5B
T2 construct: Heterodimer of the extracellular domains of NKG2A and CD94, each with hFc; also called human-derived NKG2A/CD94-ECD-Fc; hNKG2A/CD94-ECD-Fc; not shown: human IgG Fc fragment (hFc) of the pCpC vector
T2 sequence (P26715 94-233 limits assumed, chain 1 of 2): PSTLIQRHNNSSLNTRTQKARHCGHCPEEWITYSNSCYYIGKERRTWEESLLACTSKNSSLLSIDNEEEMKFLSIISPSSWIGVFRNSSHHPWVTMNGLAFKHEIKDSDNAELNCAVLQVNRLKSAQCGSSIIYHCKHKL
T2 sequence (Q13241 32-179 limits assumed, chain 2 of 2): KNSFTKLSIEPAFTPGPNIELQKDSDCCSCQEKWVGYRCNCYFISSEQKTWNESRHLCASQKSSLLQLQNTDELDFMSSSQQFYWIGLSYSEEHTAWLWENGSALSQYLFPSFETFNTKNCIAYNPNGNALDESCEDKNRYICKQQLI
Source text: (§1) An Octet red96 instrument (purchased from Fortiebio) was used to determine the affinity constant. The specific operations and methods are based on the instrument manual and the detailed methods provided by the manufacturer. Specifically: using a streptavidin sensor (SA sensor, purchased from Fortiebio) for affinity determination.

[3] = molecular target: T3, monkey NKG2A/CD94 on the cell surface (CHOk1-cNKG2A/CD94 stable cell line) (macaque, UniProt Q9MZJ3 1-233; Q9MZK9 1-179); experiment: FACS on CHOK1-cNKG2A/CD94 cells, Alexa 488 secondary antibody
T3 construct: also called macaque NKG2A; cyno NKG2A
T3 sequence (Q9MZJ3 other isoform, or with tags, fused parts or gaps, chain 1 of 2): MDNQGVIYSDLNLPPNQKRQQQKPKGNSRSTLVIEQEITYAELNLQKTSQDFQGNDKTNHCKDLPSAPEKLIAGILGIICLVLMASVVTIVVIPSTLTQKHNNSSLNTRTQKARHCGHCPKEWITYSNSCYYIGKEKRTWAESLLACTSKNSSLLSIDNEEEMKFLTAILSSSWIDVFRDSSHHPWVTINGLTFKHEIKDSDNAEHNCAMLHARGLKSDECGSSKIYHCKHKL
T3 sequence (Q9MZK9 whole entry, chain 2 of 2): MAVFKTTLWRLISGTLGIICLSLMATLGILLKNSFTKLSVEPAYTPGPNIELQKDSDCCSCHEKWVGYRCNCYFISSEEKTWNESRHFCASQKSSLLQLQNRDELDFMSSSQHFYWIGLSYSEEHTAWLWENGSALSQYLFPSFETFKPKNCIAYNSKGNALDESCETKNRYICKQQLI
Source text: The pCHO1.0 plasmid containing the nucleotide sequence encoding the full-length amino acid sequence of human-derived NKG2A/CD94 as described in step (2) of Example 1 was transfected into the CHOK1 cell line to obtain a CHOK1 stable cell line containing human NKG2A and CD94 (here referred to as CHOk1-hNKG2A/CD94 stable cell line), the pCHO1.0 plasmid carrying the monkey-derived NKG2A and CD94 full-length genes (the preparation method is the same as the preparation method of pCpC vector with human IgG Fc fragment (hFc) in step (1) “Preparation of immunogen A” in Example 1. The CHOK1 cell line was transfected to obtain the CHOK1 stable cell line containing monkey NKG2A/CD94 (here referred to as the CHOk1-cNKG2A/CD94 stable cell line), the CHOK1-hNKG2C/CD94 stable cell line was prepared with the same method. CHOk1-hNKG2A/CD94 stable cell line, CHOk1-cNKG2A/CD94 stable cell line and CHOK1-hNKG2C/CD94 stable cell line were expanded to 90% confluence in T-75 cell culture flasks, aspirating the medium, washed twice with PBS buffer (purchased from Invitrogen), then treating and collecting the cells with an enzyme-free cell dissociation solution (Versene solution, purchased from Life technology). Washing the cells twice with PBS buffer, after counting the cells, diluting the cells with PBS buffer to 2×10⁶ cells per milliliter, adding 1% goat serum blocking solution, the percentage was the mass percentage, incubated on ice for 30 minutes, and then washed twice with PBS buffer by centrifugation. Suspending the collected cells with FACS buffer (PBS+1%BSA, the percentage was the mass percentage) to 2×10⁶ cells/mL, adding it to 96-wells FACS reaction plate at 100 microliters per well, and adding 100 microliters per well of the purified NKG2A antibody test sample obtained in Example 2, incubated on ice for 2 hours. Washed twice with FACS buffer by centrifugation, and adding 100 microliters of fluorescent (Alexa 488) labeled secondary antibody (purchased from Invitrogen) per well, incubated on ice for 1 hour. Washed 3 times by centrifugation with FACS buffer, then suspending the cells with 100 μl FACS buffer, and using FACS (FACS Calibur, purchased from BD) to detect and analyze the results.

[4] = molecular target: T2, hFc-tagged NKG2A/CD94 protein …; experiment: BLI (Octet red96), biotinylated immunogen A on streptavidin sensor, antibody in solution
Source text: as §1

[5] = molecular target: T1, human NKG2A/CD94 on the cell surface …; experiment: FACS on CHOK1-hNKG2A/CD94 cells, Alexa 488 secondary antibody
[6] = molecular target: T1, human NKG2A/CD94 on the cell surface …; experiment: FACS blocking assay: HLA-E binding to NKG2A/CD94 cells in the presence of the antibody
[7] = molecular target: T3, monkey NKG2A/CD94 on the cell surface …; experiment: FACS of scFv on cells with macaque NKG2A (cell line not given)
[8] = molecular target: T2, hFc-tagged NKG2A/CD94 protein …; experiment: ELISA of scFv supernatant, selection threshold
[9] = molecular target: T4, NKG2E protein (human, UniProt Q07444 94-240, limits assumed); experiment: ELISA on NKG2E protein
T4 construct: construct and source not described
T4 sequence (Q07444 94-240 limits assumed): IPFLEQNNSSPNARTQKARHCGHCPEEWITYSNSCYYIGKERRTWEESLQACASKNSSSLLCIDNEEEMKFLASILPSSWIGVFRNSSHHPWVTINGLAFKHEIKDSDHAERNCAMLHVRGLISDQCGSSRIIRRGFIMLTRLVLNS

[10] = molecular target: T3, monkey NKG2A/CD94 on the cell surface …; experiment: FACS on CHOK1-cNKG2A/CD94 cells
[11] = molecular target: T3, monkey NKG2A/CD94 on the cell surface …; experiment: FACS on CHOK1-cNKG2A/CD94 cells; remark: listed apart in the source

Binder	EC50 (read off the curve) [3] [nM]	Kd [4] [nM]	koff [4] [s⁻¹]	kon [4] [M⁻¹ s⁻¹]	binding result [9]	other results
B1	~2	0.142	0.000189	1.33e+06		IC50 (read off the curve) [1]: ~0.7 nM; Kd [2]: 0.182 nM; koff [2]: 0.00162 s⁻¹; kon [2]: 8.87e+06 M⁻¹ s⁻¹; EC50 (read off the curve) [5]: ~0.4 nM; IC50 (read off the curve) [6]: ~1 nM
B2						binding result [7]: binds; OD450 nm reading ratio NKG2A/CD94-ECD-Fc / NKG2C/CD94-ECD-Fc [8]: 4
B3	~1	0.0181	1.84e-05	1.02e+06	no binding (tested: 66.67 nM)	
B4	~0.7	0.0104	1.04e-05	995000	no binding (tested: 66.67 nM)	
B5	~1	0.0202	2.26e-05	1.12e+06	no binding (tested: 66.67 nM)	
B6						EC50 (read off the curve) [10]: ~0.8 nM; EC50 (read off the curve) [11]: ~0.8 nM
B7	~1	0.0239	2.45e-05	1.03e+06	no binding (tested: 66.67 nM)	
B8						Kd [2]: < 0.0104 nM; koff [2]: < 1e-05 s⁻¹; kon [2]: 958000 M⁻¹ s⁻¹; EC50 (read off the curve) [10]: ~1 nM
